Values belong to the substance of their own block, whether it stands above or below them.
What was measured:
[1] = molecular target: Full-length hIKKβ (1–756) (human) (UniProt O14920); experiment: SEC
[2] = molecular target: GST-IκBα (1–317) (UniProt P25963)
[3] = molecular target: hIKKβ W655D/L658D, purified (human) (UniProt O14920); experiment: AUC
[4] = molecular target: hIKKβ KD-ULD-SDD region (1–678) (human) (UniProt O14920); experiment: SEC
[5] = molecular target: WT IKKβ (hIKKβ, parent of the purified dimerization mutants of Figure 5c) (human) (UniProt O14920); experiment: AUC

UniProt P25963, sequence (P25963 whole entry): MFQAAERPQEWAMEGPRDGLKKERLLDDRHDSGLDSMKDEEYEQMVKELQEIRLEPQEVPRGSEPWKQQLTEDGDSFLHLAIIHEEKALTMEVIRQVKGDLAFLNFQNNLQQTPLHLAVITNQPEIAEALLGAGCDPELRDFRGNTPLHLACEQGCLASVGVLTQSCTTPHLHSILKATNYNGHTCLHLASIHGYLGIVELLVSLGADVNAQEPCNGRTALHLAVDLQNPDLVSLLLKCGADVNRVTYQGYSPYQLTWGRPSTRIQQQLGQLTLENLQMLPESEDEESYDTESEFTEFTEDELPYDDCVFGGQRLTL

stoichiometry N [1]: 2 | relative Vmax of phosphorylation of full-length IκBα by IKKβ EE [2]: 502 a.u.
Substance: Full-length hIKKβ (1–756) (from UniProt O14920 1-756) (enzyme)

fold weaker dimerization affinity than WT [3]: 167 fold
Substance: hIKKβ W655D/L658D, purified (from UniProt O14920 1-756) (enzyme)

stoichiometry N [4]: 2
Substance: hIKKβ KD-ULD-SDD region (1–678) (from UniProt O14920 1-678) (domain or fragment)

stoichiometry N [5]: 2
Substance: WT IKKβ (hIKKβ, parent of the purified dimerization mutants of Figure 5c) (from UniProt O14920 1-756) (enzyme)

— paper PMC3081413
